Paper PMC8891275, “Crosstalk between CRISPR-Cas9 and the human transcriptome”

Assays:
[1] = molecular target: T1, SpCas9-NLS (CAS9PROT, Sigma-Aldrich) (UniProt Q99ZW2 1-1368); assay: competition; outcompetes 20 nM labeled CDIP1 RNA; Cas9 640 nM; 1:1 to 1:32 to Cas9; 20 mM Tris-HCl pH 7.4, 150 mM KCl, 5 mM MgCl2, 5 mM EDTA, 1 mM DTT, 0.1% BSA, 5% glycerol, 0.01% Tween 20, 50 ug/mL heparin, 200 U/mL Superase-In; 30 min at room temperature; gel at 4 C; settings: protein: commercial; tags: NLS; guide RNA hairpins
T1 sequence (Q99ZW2 whole entry): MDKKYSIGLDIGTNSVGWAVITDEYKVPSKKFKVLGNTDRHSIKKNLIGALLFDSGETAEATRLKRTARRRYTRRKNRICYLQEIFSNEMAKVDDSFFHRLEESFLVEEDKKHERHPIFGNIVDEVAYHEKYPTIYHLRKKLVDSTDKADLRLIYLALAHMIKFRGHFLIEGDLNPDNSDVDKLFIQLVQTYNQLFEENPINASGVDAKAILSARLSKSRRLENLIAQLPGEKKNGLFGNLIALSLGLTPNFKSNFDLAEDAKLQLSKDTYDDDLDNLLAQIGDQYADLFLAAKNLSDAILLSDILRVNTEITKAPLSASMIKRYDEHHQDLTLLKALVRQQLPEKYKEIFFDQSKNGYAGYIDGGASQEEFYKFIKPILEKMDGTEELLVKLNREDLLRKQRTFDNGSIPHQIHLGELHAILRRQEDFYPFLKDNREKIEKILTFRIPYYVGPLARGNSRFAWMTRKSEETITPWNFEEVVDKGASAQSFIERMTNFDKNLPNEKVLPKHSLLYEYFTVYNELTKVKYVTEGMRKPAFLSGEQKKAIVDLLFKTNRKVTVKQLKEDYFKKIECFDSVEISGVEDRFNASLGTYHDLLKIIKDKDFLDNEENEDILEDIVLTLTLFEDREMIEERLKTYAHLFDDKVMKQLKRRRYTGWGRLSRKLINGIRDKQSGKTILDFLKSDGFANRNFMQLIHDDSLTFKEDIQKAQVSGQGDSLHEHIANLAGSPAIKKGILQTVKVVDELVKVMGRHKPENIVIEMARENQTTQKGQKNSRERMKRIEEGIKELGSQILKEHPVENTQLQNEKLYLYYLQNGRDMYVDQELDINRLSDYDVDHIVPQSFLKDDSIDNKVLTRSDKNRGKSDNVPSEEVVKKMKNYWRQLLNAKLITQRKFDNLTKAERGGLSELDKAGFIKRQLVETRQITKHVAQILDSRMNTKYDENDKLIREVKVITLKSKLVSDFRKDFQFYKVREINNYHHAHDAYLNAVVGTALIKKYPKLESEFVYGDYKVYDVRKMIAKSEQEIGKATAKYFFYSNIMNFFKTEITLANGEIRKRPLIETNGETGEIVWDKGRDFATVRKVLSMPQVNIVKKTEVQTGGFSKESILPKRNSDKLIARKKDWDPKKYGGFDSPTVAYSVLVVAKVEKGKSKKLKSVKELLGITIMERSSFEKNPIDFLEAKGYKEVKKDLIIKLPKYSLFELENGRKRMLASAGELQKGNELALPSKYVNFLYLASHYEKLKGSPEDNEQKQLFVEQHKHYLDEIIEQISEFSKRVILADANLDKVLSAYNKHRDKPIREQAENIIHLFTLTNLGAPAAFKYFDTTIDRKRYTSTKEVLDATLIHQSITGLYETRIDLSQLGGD

[2] = molecular target: T1, SpCas9-NLS (CAS9PROT, Sigma-Aldrich); assay: EMSA; apparent Kd, high nanomolar; 20 nM RNA, Cas9 0-1000 nM; no gRNA; 20 mM Tris-HCl pH 7.4, 150 mM KCl, 5 mM MgCl2, 5 mM EDTA, 1 mM DTT, 0.1% BSA, 5% glycerol, 0.01% Tween 20, 50 ug/mL heparin, 200 U/mL Superase-In; 30 min at room temperature; gel at 4 C; settings: protein: commercial; tags: NLS; label: 5' IRDye 800CW; GU-loop upstream of 5-nt stem
[3] = molecular target: T1, SpCas9-NLS (CAS9PROT, Sigma-Aldrich); assay: competition; does not outcompete 20 nM labeled CDIP1 RNA; Cas9 640 nM; 1:1 to 1:32 to Cas9; 20 mM Tris-HCl pH 7.4, 150 mM KCl, 5 mM MgCl2, 5 mM EDTA, 1 mM DTT, 0.1% BSA, 5% glycerol, 0.01% Tween 20, 50 ug/mL heparin, 200 U/mL Superase-In; 30 min at room temperature; gel at 4 C; settings: protein: commercial; tags: NLS

B1: Cas9 gRNA (structured_RNA)
RNA: AUUAAUCGGUGGGAGUAUUCGUUUAAGAGCUAUGCUGGAAACAGCAUAGCAAGUUUAAAUAAGGCUAGUCCGUUAUCAACUUGAAAAAGUGGCACCGAGUCGGUGCU
[1]
  binding result: binds

B2: CDIP1 5' UTR RNA (Fig. 2) (structured_RNA)
RNA: UACCCGCCUCCUUGUGACAGAAGUGCGACUGCCAGCUGCCGAGGCGUUCGGUCCUGCUGUUGCGGCCGCUGCCCCAGGGCUGCGGGGACGGUGAGUCGACUGGA
[2]
  Kd: > 100 nM

B3: non-specific (N.S.) RNA, unlabeled (ssRNA)
RNA: CUAUGCGGCAUCAGAGCAGAUUGUACUGAGAGUGCACCAUAUGCGGUGUGAAAUACCGCACAGAUGCGUAAGGAGAAAAUACCGCAUCAGGCGCCAUUCGCCAUUCAGGCUGCGCAACUGUUGG
[3]
  binding result: no binding
